Patent publication US20220135940A1, “METHOD FOR PRODUCING KIDNEY STRUCTURE HAVING DENDRITICALLY BRANCHED COLLECTING DUCT FROM PLURIPOTENT STEM CELLS” (NATIONAL UNIVERSITY CORPORATION KUMAMOTO UNIVERSITY, priority 2018, published 2022)

Key:
Assay type in all cases: cell-based
human iPS cells [1] = test: Induction of CXCR4+/KIT+ WD progenitors from human iPS cells, FACS at day 6.25; conditions: epiblast patterning stage (day 0 to day 1), combination of activin A and Bmp4
Description: Cells were reaggregated at 10,000 cells per aggregate in a V-bottom 96-well low cell binding plate using a medium containing 10 μM Y27632 and 10 ng/mL human activin A and 1 ng/mL human Bmp4 (“Procedure 1 medium”), to form embryonic bodies (EBs). After 24 hours (day 1), the aggregates were transferred to a U-bottom 96-well low cell binding plate containing a medium containing 10 μM CHIR and 1 ng/mL human Bmp4 (“Procedure 2 medium”). After 36 hours (day 2.5), the medium was replaced with a medium containing 0.1 μM retinoic acid, 100 ng/mL human Fgf9, 100 nM LDN193189 and 100 μM SB431542 (“Procedure 3 medium”). On day 4.5, the medium was replaced with a medium containing 0.1 μM retinoic acid, 5 μM CHIR, 100 ng/mL human Fgf9 and 30 nM LDN193189 (“Procedure 4 medium”).
On day 6.25, the induced spheroids were harvested and dissociated by incubating in 0.25% trypsin/EDTA for 6 minutes at 37° C. After blocking in normal mouse serum, cell surface marker (CXCR4/KIT) staining was carried out in a buffer containing 1% BSA, 1×HBSS and 0.035% NaHCO3. The FACS-sorted 5,000 of CXCR4+/KIT+ cells were seeded in a V-bottom 96-well low cell binding plate and precipitated by the centrifuge (210 G for 4 minutes). The supernatant was replaced with a medium containing 10 μM Y27632, 0.1 μM retinoic acid, 1 μM CHIR, 5 ng/mL human Fgf9, 100 ng/mL human Fgf1, 10 nM LDN193189 and 10% growth factor reduced Matrigel (“Procedure 5 medium”). On day 8.5, the spheroids were transferred to a medium containing 10 μM Y27632, 0.1 μM retinoic acid, 3 μM CHIR, 5 ng/mL human Fgf9, 1 ng/mL human GDNF, 100 ng/mL human Fgf1, 10 nM LDN193189 and 10% growth factor reduced Matrigel (“Procedure 6 medium”). On day 10.5, the spheroids were transferred to a medium containing 10 μM Y27632, 0.1 μM retinoic acid, 3 μM CHIR, 2 ng/mL human GDNF, 100 ng/mL human Fgf1, 10 nM LDN193189 and 10% growth factor reduce Matrigel (“Procedure 7 medium”).
(§1) Cell aggregates induced from embryonic tissue or mouse ES cells/human iPS cells were dissociated and blocked with normal mouse serum and then cell surface marker staining was carried out in a buffer containing 1% BSA, 1×HBSS and 0.035% NaHCO3. Data analysis was performed with FlowJo software (Treestar).
Next, the optimal time window for inducing anterior or posterior intermediate mesoderm from the nascent mesoderm was examined. Since the nascent mesoderm population is maintained by the high concentrations of Wnt agonists, the incubation period with Wnt agonists was varied and the subsequent differentiation was applied with conditions specific to the UB or metanephric nephron progenitor cell lineage. The induction efficiency of CXCR4+/KIT+ WD progenitor or ITGA8+/PDGFRA− nephron progenitor cell fraction was examined at day 6.25 or day 12, respectively. […]

human iPS cells [2] = test: Induction of ITGA8+/PDGFRA- nephron progenitor cells from human iPS cells, FACS at day 12; conditions: epiblast patterning stage, absence of Bmp4
Description: The previously reported protocol (Taguchi 2014 above) was modified and applied. In the presence of 10 μM Y27632 and 1 ng/mL human activin A, cells were reaggregated at 10,000 cells per aggregate in a V-bottom 96-well low cell binding plate, to form embryonic bodies (EBs). After 24 hours (day 1), the aggregates were transferred to a U-bottom 96-well low cell binding plate containing the mesoderm-inducing medium containing 10 μM CHIR. Subsequently, half of the culture medium was replaced with a fresh medium every other day (day 3 and day 5). On day 7, the medium was replaced with ABC3R medium containing 10 ng/mL human activin A, 3 ng/mL human Bmp4, 3 μM CHIR and 0.1 μM retinoic acid. On day 9, the medium was replaced with ClF medium containing 1 μM CHIR and 5 ng/mL human Fgf9.
as §1
Next, the optimal time window for inducing anterior or posterior intermediate mesoderm from the nascent mesoderm was examined. […]

mouse ES cells [3] = test: AIM induction from mouse ES cells (procedure 3), AIM marker expression; conditions: Fgf9 at high concentrations
Description: (§2) ES cells were differentiated in a serum-free medium as follows. The ES cells were dissociated with Accutase™ (ESGRO) and cultured in a serum-free mouse ES cell differentiation medium. The harvested cells were aggregated in a 96-well U-bottom low cell binding plate at 1,000 cells per aggregate to form embryonic bodies (EBs). After 48 hours (day 2), the EBs were dissociated with Accutase and re-aggregated in a serum-free differentiation medium supplemented with 10 ng/mL human activin A (R & D) (Procedure 1). After 24 hours (day 3), the medium was replaced with a medium containing 0.3 ng/mL human Bmp4 (R & D) and 10 μM CHIR 99021 (Procedure 2). After 36 hours (day 4.5), the medium was replaced with procedure 3 medium containing 0.1 μM retinoic acid, 100 ng/mL human Fgf9 and 10 μM SB431542 (Wako). On day 5.5 (24 hours later), the medium was replaced with a medium containing 0.1 μM retinoic acid, 100 ng/mL human Fgf9 and 5 μM CHIR99021 (“Procedure 4 medium”). The differentiation factors of the Hoxb7-GFP ES cell line are shown in the table below together with the differentiation factors of the Osr1-GFP ES cell line.
Harvested spheroids or cells were homogenized, and total RNA was isolated using RNeasy Plus Micro Kit (Qiagen), and then a reverse-transcribed with random primers and Superscript III (Invitrogen). Quantitative PCR was carried out using Real-Time PCR system (Takara Bio) and Thunderbird SYBR qPCR Mix (Toyobo). With normalized by β-actin gene, relative mRNA expression levels were analyzed.
Next, signaling for the AIM differentiation procedure was hypothesized, which is partially different from that for PIM, based on the gene expression profile minimally conserved, between anterior intermediate mesoderm (AIM) (Osr1+, Pax2+, Pax8+, Emx2+, Lhx1+, Gata3+) and posterior intermediate mesoderm (PIM) (Osr1+, Wtl+, Hoxll+) (Procedure 3 in FIG. 2).

mouse ES cells [4] = test: Induction of CXCR4+/KIT+ WD progenitors from mouse ES cells, FACS at day 6.25; conditions: Bmp4 in procedure 2, activin A in procedure 1
Description: as §2
On day 6.25, the induced spheroids were harvested and dissociated by incubating in 0.25% trypsin/EDTA at 37° C. for 6 minutes. After blocking in normal mouse serum, cell surface marker (CXCR4/KIT) staining was carried out in a buffer containing 1% BSA, 1×HBSS and 0.035% NaHCO3. The FACS-sorted 3,000 Hoxb7-GFP+/CXCR4+/KIT+ cells were aggregated in a V-bottom 96-well low cell binding plate to form spheroids. Subsequently, these were cultured using the above E8.75 embryonic tissue culture conditions.
as §1

B1: activin A: homodimer of two inhibin BA chains (protein, UniProt P08476 311-426, looked up)
Inhibin beta A chain: GLECDGKVNICCKKQFFVSFKDIGWNDWIIAPSGYHANYCEGECPSHIAGTSGSSLSFHSTVINHYRMRGHSPFANLKSCCVPTKLRPMSMLYYDDGQNIIKKDIQNMIVEECGCS
modifications: Inhibin beta A chain
notes: homodimer of two inhibin BA chains
Human iPS cells [1]
  concentration at which WD progenitor induction peaked: 10 ng/mL
Human iPS cells [2]
  concentration at which induction of nephron progenitor cells was maximized: 1 ng/mL
Mouse ES cells [3]
  induction of AIM markers: inhibitory to the induction of AIM markers
Mouse ES cells [4]
  UB induction versus MM induction, concentration dependence: higher concentration of activin A was preferred for UB induction
